This is an account of results in paper PMC11853025, “Determining Ligand Binding and Specificity Within the β2-Integrin Family with a Novel Assay Platform” (Biomolecules, 2025).

Settings in all cases: both partners purified
One assay deals with T1, C3b (UniProt P01024 23-667; P01024 749-1663).
T1 construct: A seed of about 100 RU C3b was amine-coupled; further C3b was deposited via its thioester moiety to about 5000 RU; also called C3b fragment; C3-derived opsonin; source: bought: Complement Technology (C3b, C3); deposited on the SPR chip from C3 by the FB/FD convertase
Description: SPR; C3b deposited on a CM5 chip (amine-coupled seed, then convertase-mediated deposition to about 5000 RU), iC3b and C3dg made from it on the chip; αI domains injected as dilution series, 120 s; Biacore T200, 25 °C; HBST (10 mM HEPES, 150 mM NaCl, 0.005% Tween-20, pH 7.4) with 1 mM MgCl2; Langmuir 1:1 fit, KD calculated.

Another assay addresses T2, C3dg (UniProt P01024 955-1303).
T2 construct: Held on the chip through the thioester-mediated deposit of its parent C3b; also called C3dg fragment; source: made on the SPR chip by co-injecting CR1 and factor I
The assay is described as above.

The target of assay [1] is T3, ICAM-2 (recombinant, Sino Biological 10332-H03H) (UniProt P13598 25-223).
T3 construct: ICAM-2, bought recombinant protein; also called intercellular adhesion molecule 2; source: bought: Sino Biological
T3 sequence (looked up): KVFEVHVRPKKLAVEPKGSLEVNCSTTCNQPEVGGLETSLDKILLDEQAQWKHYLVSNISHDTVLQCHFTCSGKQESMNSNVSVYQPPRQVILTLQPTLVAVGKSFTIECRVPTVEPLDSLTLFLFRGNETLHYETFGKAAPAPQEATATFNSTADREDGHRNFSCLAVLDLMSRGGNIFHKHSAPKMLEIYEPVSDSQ
Description: SPR; ICAM-1, ICAM-2, ICAM-3 amine-coupled to a CM5 chip; αI domains injected; 25 °C; HBST with 1 mM MgCl2.

Assay [2] addresses T4, ICAM-1 (recombinant, Sino Biological 10346-H03H) (UniProt P05362 28-480).
T4 construct: ICAM-1, bought recombinant protein; also called intercellular adhesion molecule 1; source: bought: Sino Biological
The assay is described as above.

T4 sequence (P05362 28-480): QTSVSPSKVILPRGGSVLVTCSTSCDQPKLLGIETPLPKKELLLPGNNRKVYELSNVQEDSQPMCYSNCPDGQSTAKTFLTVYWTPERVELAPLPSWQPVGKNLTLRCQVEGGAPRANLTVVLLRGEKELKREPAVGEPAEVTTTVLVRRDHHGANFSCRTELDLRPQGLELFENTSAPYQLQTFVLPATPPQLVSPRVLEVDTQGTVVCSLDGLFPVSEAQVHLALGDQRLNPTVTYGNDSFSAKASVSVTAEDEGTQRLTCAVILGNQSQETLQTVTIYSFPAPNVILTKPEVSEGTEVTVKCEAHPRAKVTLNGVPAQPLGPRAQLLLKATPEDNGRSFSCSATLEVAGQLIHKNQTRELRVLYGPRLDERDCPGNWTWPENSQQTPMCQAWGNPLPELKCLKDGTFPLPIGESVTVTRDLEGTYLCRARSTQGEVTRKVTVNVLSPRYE

B1: CR3 αMI domain, high-affinity (HA) variant p.I332G (domain or fragment)
chain: QEDSDIAFLIDGSGSIIPHDFRRMKEFVSTVMEQLKKSKTLFSLMQYSEEFRIHFTFKEFQNNPNPRSLVKPITQLLGRTHTATGIRKVVRELFNITNGARKNAFKILVVITDGEKFGDPLGYEDVIPEADREGVIRYVIGVGDAFRSEKSRQELNTIASKPPRDHVFQVNNFEALKTIQNQLREKGFA
notes: integrin alpha-M (CD11b) αI domain, Q146-A334; beads captured by the His-tag; also called αMI HA; HA αMI
A word on the Kd: it is the free concentration of one partner at which half of the binding sites on the other are occupied at equilibrium, for simple one-to-one binding. Turning to B1, the Kd with C3b is 11.6 µM; with C3dg it was 1.4 µM. Besides, in assay [1], the binding result is “binds”.

B2: CR4 αXI domain, wild type (WT) (domain or fragment, UniProt P20702 148-336, looked up)
chain: QEQDIVFLIDGSGSISSRNFATMMNFVRAVISQFQRPSTQFSLMQFSNKFQTHFTFEEFRRSSNPLSLLASVHQLQGFTYTATAIQNVVHRLFHASYGARRDAAKILIVITDGKKEGDSLDYKDVIPMADAAGIIRYAIGVGLAFQNRNSWKELNDIASKPSQEHIFKVEDFDALKDIQNQLKEKIFAI
notes: integrin alpha-X (CD11c) αI domain, Q148-I336; also called αXI WT; WT αXI
Take B2: the equilibrium dissociation constant (Kd) in the assay with C3b is 55.5 µM; with C3dg, 30.4 µM.

B3: CR4 αXI domain, high-affinity (HA) variant p.I333G (domain or fragment, UniProt P20702 148-336, looked up)
chain: QEQDIVFLIDGSGSISSRNFATMMNFVRAVISQFQRPSTQFSLMQFSNKFQTHFTFEEFRRSSNPLSLLASVHQLQGFTYTATAIQNVVHRLFHASYGARRDAAKILIVITDGKKEGDSLDYKDVIPMADAAGIIRYAIGVGLAFQNRNSWKELNDIASKPSQEHIFKVEDFDALKDIQNQLKEKGFAI
notes: integrin alpha-X (CD11c) αI domain, Q148-I336; Addgene numbers tied to αLI and αXI by the order of the sentence; also called αXI HA; HA αXI
Turning to B3, the Kd is 2.2 µM in the assay with C3b and 3.8 µM with C3dg.

B4: CD11d αDI domain, high-affinity (HA) variant p.I332G (domain or fragment, UniProt Q13349 145-334, looked up)
chain: PHQEMDIVFLIDGSGSIDQNDFNQMKGFVQAVMGQFEGTDTLFALMQYSNLLKIHFTFTQFRTSPSQQSLVDPIVQLKGLTFTATGILTVVTQLFHHKNGARKSAKKILIVITDGQKYKDPLEYSDVIPQAEKAGIIRYAIGVGHAFQGPTARQELNTISSAPPQDHVFKVDNFAALGSIQKQLQEKGYA
notes: integrin alpha-D (CD11d) αI domain, P145-A334; plasmid bought from ATG:Biosynthetics; also called αDI HA; HA αDI
On to B4, for which the binding result in assay [2] is reported as “binds”.
